Test results from publication PMC12548284, “SIK2-mediated phosphorylation of GABARAPL2 facilitates autophagosome–lysosome fusion and rescues neurodegeneration in an Alzheimer’s disease model” (Translational Neurodegeneration, 2025).

Molecular target: T1, GST-GABARAPL2 (UniProt P60520 1-117)
T1 construct: GABARAPL2 of the bought GST fusion protein; source: bought: Proteintech (Ag1155)
Experiment: pull-down; competitive GST pull-down: GST-GABARAPL2 on glutathione-conjugated Sepharose beads, SIK2 protein in solution, LIR peptide at 0, 5, 10, 20, 40 μmol/L; immunoblot
Settings: both partners purified

T1 sequence (P60520 whole entry, the tested form may be a part): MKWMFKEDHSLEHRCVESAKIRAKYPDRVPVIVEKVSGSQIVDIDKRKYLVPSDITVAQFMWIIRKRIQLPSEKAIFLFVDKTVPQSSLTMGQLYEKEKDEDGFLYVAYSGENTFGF

B1: LC3-interacting region (LIR) 326–333 (FAAIYFLL) peptide (peptide)
peptide: FAAIYFLL
notes: SIK2 residues 326-333, the canonical LIR motif within 290-550; also called LIR peptide; source: synthetic peptide; bought: Sangon Biotech
binding result: binds
